Data taken from PMC4597782 (Nature, 2015).

Target: the molecule itself
Test: single-molecule pull-down

B1: mGluR2-GFP (receptor)
chain: EGPAKKVLTLEGDLVLGGLFPVHQKGGPAEECGPVNEHRGIQRLEAMLFALDRINRDPHLLPGVRLGAHILDSCSKDTHALEQALDFVRASLSRGADGSRHICPDGSYATHSDAPTAVTGVIGGSYSDVSIQVANLLRLFQIPQISYASTSAKLSDKSRYDYFARTVPPDFFQAKAMAEILRFFNWTYVSTVASEGDYGETGIEAFELEARARNICVATSEKVGRAMSRAAFEGVVRALLQKPSARVAVLFTRSEDARELLAATQRLNASFTWVASDGWGALESVVAGSERAAEGAITIELASYPISDFASYFQSLDPWNNSRNPWFREFWEERFHCSFRQRDCAAHSLRAVPFEQESKIMFVVNAVYAMAHALHNMHRALCPNTTHLCDAMRPVNGRRLYKDFVLNVKFDAPFRPADTDDEVRFDRFGDGIGRYNIFTYLRAGSGRYRYQKVGYWAEGLTLDTSFIPWASPSAGPLPASRCSEPCLQNEVKSVQPGEVCCWLCIPCQPYEYRLDEFTCADCGLGYWPNASLTGCFELPQEYIRWGDAWAVGPVTIACLGALATLFVLGVFVRHNATPVVKASGRELCYILLGGVFLCYCMTFVFIAKPSTAVCTLRRLGLGTAFSVCYSALLTKTNRIARIFGGAREGAQRPRFISPASQVAICLALISGQLLIVAAWLVVEAPGTGKETAPERREVVTLRCNHRDASMLGSLAYNVLLIALCTLYAFKTRKCPENFNEAKFIGFTMYTTCIIWLAFLPIFYVTSSDYRVQTTTMCVSVSLSGSVVLGCLFAPKLHIILFQPQKNVVSHRAPTSRFGSAAPRASANLGQGSGSQFVPTVCNGREVVDSTTSSL
stoichiometry N: 2
